Measured values published in the supplement of paper PMC9732359.
± gives the uncertainty stated by the source.

Assay: protein stability index of a GFP-peptide fusion (yeast GPS) (PSI 1-4); higher = more stable; sorted into four equal gates, so the index is relative within each strain
Details: pdr5∆
Summary of the method: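 Tiled yeast protein peptides of 17 residues were each joined downstream of GFP, on plasmids that also express Cherry. The pooled library was maintained in yeast, and mid-log cultures in leucine-free medium were sorted into four equal gates on the GFP/Cherry ratio. Plasmids from every gate were amplified by PCR and sequenced on Illumina, with barcodes linking reads to strains. The protein stability index of a peptide is its gate-number-weighted read frequency summed over the gates.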

Row | Sequence | protein stability index
1 | YDTQLKVSPEELPLVIT [ARP7] | 2.77 ± 0.062
2 | YEADQRKLFPNWIKPSD [PRP8] | 2.86 ± 0.085
3 | YFKLSITSFDQDVDDAH [POP8] | 1.95 ± 0.075
4 | YFLHLSVFNAELLKLLN [YCS4] | 1.61 ± 0.058
5 | YFLKVTFLKYFGWLLSD [IRR1] | 1.59 ± 0.054
6 | YFSNKTSTGIIRCHRED [POP5] | 2.68 ± 0.1
7 | YFWHKIWRKVPGDVLDK [SNU114] | 1.08 ± 0.064
8 | YGAYNTQIANAGASPMV [PRE4] | 2.3 ± 0.096
9 | YGGSRCANCVKERIVRA [RPL34B] | 3.38 ± 0.089
10 | YGHVFLGITGLATDVTT [PUP3] | 2.24 ± 0.098
11 | YGIPLEFYNEMHRPVHF [PRP8] | 2.04 ± 0.1
12 | YGKPTNQGVNELKYQRS [RPL15A] | 3.23 ± 0.17
13 | YGNDEEVLFYEDNYNPK [RPN4] | 3.2 ± 0.12
14 | YGRQELADDLITKMLAS [RPN2] | 2.92 ± 0.29
15 | YHGISKNDNIKKSVNKL [POP6] | 2.75 ± 0.049
16 | YHQLLSDIESLEALMDI [SRB8] | 2.84 ± 0.19
17 | YIEASGREGIWSKTIKA [RPC34] | 2.07 ± 0.16
18 | YIESKFCPGEIVGKSNV [YMR129W/POM152] | 2.92 ± 0.1
19 | YIKSATLYSVKSKEDMK [SNU114] | 3.31 ± 0.13

Row | Sequence | protein stability index
20 | YINGKATALANLRKSRG [RPO31] | 3.13 ± 0.075
21 | YINSDSVNPAMLPGSSN [RPO31] | 2.74 ± 0.099
22 | YISNLLYGVTICYNKKT [REC8] | 1.27 ± 0.048
23 | YIYSHVNKVPQNVAGDK [SWP82] | 2.93 ± 0.079
24 | YKIPKVMKDIYKVENVT [ESC2] | 3.52 ± 0.16
25 | YKRSIVRNYKPLINRLK [SWI1] | 2.7 ± 0.1
26 | YKWTQGINNLSEIWDVS [PRP8] | 2.9 ± 0.077
27 | YLACKVEECPQYIRTLV [SSN8] | 1.27 ± 0.14
28 | YLAHEDNKEKDFELEIS [PRE10] | 2.86 ± 0.12
29 | YLKHNSIAEEIPIAIVL [RET1] | 2.18 ± 0.047
30 | YLSGAIPNQEVLQYSDW [YDL116W/NUP84] | 1.83 ± 0.074
31 | YLTGGQQPTASDNIASL [SMD1] | 2.57 ± 0.18
32 | YNALFQQNIKFRRDFLL [YJL039C/NUP192] | 2.02 ± 0.063
33 | YNGFIDIFSNLSSDDLL [YCS4] | 2.99 ± 0.066
34 | YNNKVGVAASQGSMSER [SIR2] | 2.04 ± 0.063
35 | YNSVAEAKKFEPTYRLV [RPS24A] | 2.95 ± 0.13
36 | YNTSILEFRWLTSSKSV [SIN4] | 1.91 ± 0.081
37 | YNVENQQYVAAGDLRAL [FAS1] | 2.83 ± 0.087
38 | YPVHEAHKGQIVLIKGI [SNU114] | 2.45 ± 0.088

Row | Sequence | protein stability index
39 | YQKLFSQFINDHILFTK [SRB8] | 2.06 ± 0.048
40 | YQWNLDGLQQLDKYLYV [RPN1] | 3.08 ± 0.058
41 | YSIDEFFLQRKLRSELG [BRR2] | 2.06 ± 0.13
42 | YSKNNPNLLFSMCGFEV [PRP8] | 2.69 ± 0.093
43 | YSKSFEQFKMVSMITDH [POP1] | 1.97 ± 0.23
44 | YSMISLQNCCIIDVGTH [ARP9] | 1.41 ± 0.067
45 | YSSVAGTVSRVNRLLSV [RRP4] | 1.77 ± 0.038
46 | YSTIRQLVYKRGFGKIN [RPL7A] | 1.97 ± 0.047
47 | YSWLLFEASCMEGQKLD [YJR042W/NUP85] | 1.36 ± 0.09
48 | YSYTTIVLSDQTQEFFL [YJL039C/NUP192] | 2.92 ± 0.068
49 | YTETDPAKVAEEGINKF [SRP54] | 3.3 ± 0.097
50 | YTKPYPNFEASFVHGVV [SMC2] | 2.32 ± 0.13
51 | YTPEESAWIWPMDEETK [RPC25] | 2.62 ± 0.074
52 | YVDTATAKRKSRKRKPK [IRR1] | 3.32 ± 0.1
53 | YVGEVIKIVSDKKVLVK [RPT6] | 2.9 ± 0.055
54 | YVNYEISTAKAWGALIT [YML103C/NUP188] | 1.43 ± 0.049
55 | YVRAKFLDYTTDNVSMY [PRP8] | 2.73 ± 0.064
56 | YWQFNGVIALGQFVTLG [RMP1] | 2.79 ± 0.086
57 | YWVPDWDGVIPTPAIIK [RPO21] | 2.7 ± 0.096
